Series [1] deals with ZF02 (two-finger zinc finger protein targeting AACTGA, YFP fusion) (Artificial Sequence). The series can be described thus: EMSA; 20 mM bis-Tris propane pH 7.0, 100 mM NaCl, 5 mM MgCl2, 20 mM ZnSO4 (so in the source), room temperature 1 h; complementary strand SEQ 16 appears printed 3'-5'. Particulars: tags: YFP fused via (Gly2Ser)2 linker; Ni-NTA purified from E. coli BL21(DE3), pET21b-YFP-ZF (2). Here is the method: (§1) In order to identify whether the sequence specific binding protein prepared in Example 2 specifically binds to the target nucleic acid, a gel mobility shift assay was performed.
ZF02 (two-finger zinc finger protein targeting AACTGA, YFP fusion) (Artificial Sequence), sequence (chain, as listed by the source): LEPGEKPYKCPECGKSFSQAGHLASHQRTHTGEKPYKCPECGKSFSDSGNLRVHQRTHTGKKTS
(§2) First, a 20-mer oligonucleotide including the nucleotide sequences AATTAG or AACTGA, which the sequence specific binding protein may specifically recognize, was synthesized (SEQ ID NO. 13 to SEQ ID NO. 16). Subsequently, each of the oligonucleotides of SEQ ID NOS. 13 and 14, SEQ ID NOS. 15 and 16 was annealed to prepare a target nucleic acid. The prepared target nucleic acid and the protein prepared in Example 2 was added to a buffer solution (including 10 ml of 20 mM bis-Tris propane (pH 7.0); 100 mM NaCl; 5 mM MgCl₂; 20 mM ZnSO₄; 10% glycerol; 0.1% Nonidet P-40; 5 mM DTT; and 0.10 mg/ml BSA), followed by reaction at room temperature for about 1 hour. The reactant was subjected to non-denaturing PAGE and as a result as shown in FIG. 6 and FIG. 7, it was identified that a combined product of a target nucleic acid 1 (a polynucleotide fragment including AATTAG) or 2 (a polynucleotide fragment including AACTGA) with ZF01 or ZF02 respectively recognizing the nucleic acid 1 or 2 was shorter in mobility distance on the gel than a negative control group (target nucleic acid).
On the technique in general: Mobility shift assays separate free from complexed probe on a gel.

The target of series [2] is ZF01 (two-finger zinc finger protein targeting AATTAG, YFP fusion) (Artificial Sequence). The series can be described thus: EMSA; 20 mM bis-Tris propane pH 7.0, 100 mM NaCl, 5 mM MgCl2, 20 mM ZnSO4 (so in the source), room temperature 1 h; complementary strand SEQ 14 appears printed 3'-5'. The note with it: tags: YFP fused via (Gly2Ser)2 linker; Ni-NTA purified from E. coli BL21(DE3), pET21b-YFP-ZF (1). Here is the method: as §1, §2
ZF01 (two-finger zinc finger protein targeting AATTAG, YFP fusion) (Artificial Sequence), sequence (chain, as listed by the source): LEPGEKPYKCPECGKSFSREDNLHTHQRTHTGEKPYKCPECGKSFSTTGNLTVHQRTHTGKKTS

B1: target nucleic acid 2 (AACTGA 20-mer duplex) (dsDNA)
DNA 1: TTTTTTTAACTGATTTTTTT
DNA 2: AAAAAAATCAGTTAAAAAAA
As to B1, in series [1], the binding result is given as “binds”.

B2: target nucleic acid 1 (AATTAG 20-mer duplex) (dsDNA)
DNA 1: TTTTTTTAATTAGTTTTTTT
DNA 2: AAAAAAACTAATTAAAAAAA
Take B2: the binding result in series [2] was “binds”.

These data come from patent US20130122577, “KIT INCLUDING SEQUENCE SPECIFIC BINDING PROTEIN AND METHOD AND DEVICE FOR DETERMINING NUCLEOTIDE SEQUENCE OF TARGET NUCLEIC ACID” (Samsung Electronics Co., Ltd., published 2013).
